The record followed here is publication PMC4777856, “Structural Basis of Stereospecificity in the Bacterial Enzymatic Cleavage of β-Aryl Ether Bonds in Lignin” (The Journal of Biological Chemistry, 2015).

For orientation: Km means the substrate concentration at which the rate is half of its maximum. A word on the Vmax: it is the top rate of the reaction or transport when substrate is in excess. Broadly, the kcat is the number of substrate molecules converted per active site and unit of time at saturation. As a reminder, the kcat/Km is the second-order rate constant that governs catalysis at low substrate concentration.

Substrate in data set [1]: COc1ccc(C(=O)[C@@H](CO)Oc2ccc(C=O)cc2OC)cc1OC
In words: purified protein. It is filed as biochemical, Sphingobium sp. SYK-6. Particulars: 5 mM GSH, 25 mM Tris, 2.5% DMSO, pH 8.0, 30 °C.

Substrate in data set [2]: COc1ccc(C(=O)[C@H](CO)Oc2ccc(C=O)cc2OC)cc1OC
Description: purified protein. The class given is biochemical, Sphingobium sp. SYK-6. Particulars: 5 mM GSH, 25 mM Tris, 2.5% DMSO, pH 8.0, 30 °C.

B1: LigE (Sphingobium sp. SYK-6) (protein)
chain: MARNNTITLYDLQLESGCTISPYVWRTKYALKHKGFDIDIVPGGFTGILERTGGRSERVPVIVDDGEWVLDSWVIAEYLDEKYPDRPMLFEGPTQKNLMKFLDNWLWSTAVGPWFRCYILDYHDLSLPQDRDYVRWSREQWFLGGQRLEDVQAGREDRLPLVPPTLEPFRRILAETKWLGGDQPNFADYSALAVFLWTASVARTPPLTEDDPLRDWLDRGFDLFDGLGRHPGMNPLFGLKLREGDPEPFVRQTGPAGAGGQALNKGPQTTKMPPRVAEKAD
notes: full-length LigE (282 residues), E. coli, synthesized gene in pCPD, C-terminal CPD-His tag cleaved off after a leucine; dimer
B1: in the data set “purified protein [1]”, the Km stood at 554 ± 16 µM, the Vmax was found to be 59.7 µmol/min/mg, the turnover number (kcat) is 31.9 ± 0.6 s⁻¹ and the kcat/Km is 57600 ± 4800 M⁻¹ s⁻¹.

B2: LigF (Sphingobium sp. SYK-6) (protein)
chain: MTLKLYSFGPGANSLKPLATLYEKGLEFEQVFVDPSKFEQHSDWFKKINPRGQVPALWHDGKVVTESTVICEYLEDVFPESGNSLRPADPFKRAEMRVWTKWVDEYFCWCVSTIGWAFGIKAIAQKMSDEEFEEHINKNVPIPEQQLKWRRARNGFPQEMLDEEFRKVGVSVARLEETLSKQDYLVDTGYSLADICNFAIANGLQRPGGFFGDYVNQEKTPGLCAWLDRINARPAIKEMFEKSKREDLLKRQNEKVA
notes: full-length wild type LigF (254 residues), vector pVP102KSSLigF; dimer
In the case of B2, in the data set “purified protein [2]”, the Km amounted to 269 ± 1 µM, the Vmax came out at 63.8 µmol/min/mg, the kcat was determined as 31.9 ± 0.1 s⁻¹ and the specificity constant (kcat/Km) was determined as 118400 ± 1100 M⁻¹ s⁻¹.
